# Measurements as given in paper PMC5065780.
# B1: 10 bp dsRNA probe (dsRNA)
# RNA 1: CACUGCGACC
# RNA 2: GGUCGCAGUG
# Target: VP35 IID (interferon inhibitory domain) (Ebola virus, UniProt X5GXU1 215-340)
# Assay: EMSA
binder,measurement,value
B1,binding result,binds
